# Patent US20220233638A1
# Target: canine LILRB3 (ENSCAFG00000028453) on normal MDCK cells (dog)
# Assay: cell-based or functional assay
# canine LILRB3 (ENSCAFG00000028453) on normal MDCK cells (dog), sequence (chain, as listed by the source limits assumed, form in doubt): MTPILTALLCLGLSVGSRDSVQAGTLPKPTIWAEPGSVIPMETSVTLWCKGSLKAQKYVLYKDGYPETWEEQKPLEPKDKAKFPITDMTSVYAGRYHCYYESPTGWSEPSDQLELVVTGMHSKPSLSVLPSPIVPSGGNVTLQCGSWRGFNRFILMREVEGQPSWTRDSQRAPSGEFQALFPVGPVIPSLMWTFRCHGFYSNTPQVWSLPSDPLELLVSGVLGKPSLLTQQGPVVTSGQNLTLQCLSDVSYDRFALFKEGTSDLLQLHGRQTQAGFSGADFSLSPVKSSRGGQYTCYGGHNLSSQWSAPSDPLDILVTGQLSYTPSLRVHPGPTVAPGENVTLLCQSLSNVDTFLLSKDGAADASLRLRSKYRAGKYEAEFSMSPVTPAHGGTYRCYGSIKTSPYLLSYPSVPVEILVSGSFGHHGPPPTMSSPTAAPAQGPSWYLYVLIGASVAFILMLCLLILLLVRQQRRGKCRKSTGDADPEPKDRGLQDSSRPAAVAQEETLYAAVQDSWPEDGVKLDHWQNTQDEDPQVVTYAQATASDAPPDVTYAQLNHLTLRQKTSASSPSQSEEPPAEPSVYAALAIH
substance,measurement,value
recombinant protein DLA88-α3 (from UniProt P18466 207-299) (ligand),"residual rate of SCRB^KD (Scribble knockdown) MDCK cells in mixed culture with normal MDCK cells, 24 hr",20%
